Laboratory results reported in patent publication US20200332020A1 (REGENTS OF THE UNIVERSITY OF MINNESOTA, published 2020).

Assays:
[1] = target: HSPG2 (perlecan) on cells (human, UniProt P98160 22-4391); test: apparent KD, flow cytometry titration on tumor cells
[2] = target: T1, Recombinant HSPG2 domain 1 (first 247 amino acids of human HSPG2, C-terminal His tag) (human, UniProt P98160 22-247); test: biolayer interferometry (BLItz), HSPG2 domain 1 on Ni-NTA biosensor
T1 construct: range 1-247; The stated range counts from residue 1, so it includes the signal peptide; also called HSPG2D1; perlecan domain 1; not shown: C-terminal His tag from the pcDNA 3.3+ vector
Description: We used biolayer inferometry (BLItz, Fortebio) to determine antibody binding kinetics specifically with purified HSPG2 domain 1. Ni-NTA biosensors were hydrated for 10 minutes in phosphate buffered saline. Following hydration, a 30 second baseline was established, followed by a 10-minute loading of the biosensor with 10 μg/mL HSPG2 domain 1 protein. The biosensor was then placed in PBS to establish baseline for 30 seconds. A two-step antibody association—dissociation cycle of 5 minutes each was then used to determine the kinetic association (kₐ) and dissociation (kd) rate constants. The equilibrium dissociation constant (KD) was calculated as KD=kd/kₐ
An important caveat with flow cytometry-based titration curves is the potential for avidity affects contributing to the binding, resulting in an ‘apparent KD’. Biophysical techniques are most often employed to generate the true, analytically relevant ‘intrinsic KD^{’} value. We chose biolayer interferometry as a means of assessing the kinetics of antibody-antigen binding with HSPG2D1.

B1: Tw1S4_6 IgG (antibody, V domains shown)
VH: EVQLLESGGGLVQPGGSLRLSCAASGFTFSSYAMSWVRQAPGKGLEWVSAIREDGIKTYYADSVKGRFTISRDNSKNTLYLQMNSLRAEDTAVYYCAKRARRFDYWGQGTLVTVS
VL: DIQMTQSPSSLSASVGDRVTITCRASQSISSYLNWYQQKPGKAPKLLIYNASLLQSGVPSRFSGSGSGTDFTLTISSLQPEDFATYYCQQSLRSPITFGQGTKVEIKR
B1 was tested, and the Kd [1] was 125 to 275 nM, the Kd [2] was 1790 nM and the koff [2] was 0.0109 s⁻¹. It also gave a kon [2] of 6140 M⁻¹ s⁻¹.
